The domain aggregation screens of Martell et al. (2025)

assay: soluble fraction after stress (log2 fold change); higher = more stays soluble; pooled small domains, quantitative proteomics; details: stress: 50 degC
Summary of the method: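 Each library was heated to 50°C as a stress step. The libraries, made up of small protein domains, were pooled and analysed at high throughput by quantitative proteomics. The reported value is the base-two logarithm of the fold change in each protein's soluble amount after stress, taken as a measure of aggregation propensity. The higher the value, the more protein stays in solution.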

In order of falling “soluble fraction (log2)” value:
1. HMQEKIREVANRIRELRESLEVSPEEMADHLKVTIGTYIEYERGEADIPASVLFGIAHRLNVDMAVLL  0.142
2. HMGEDSEPVQVPDVTGQPLWEARRTLSSMGLKVLDDGGSGSVTAQMPSAGATLRNGGQMMLYTYDEALPE  0.133
3. HMGTSFKITFYKDAFQVDDGPIRMLNDPANQKFVDEVSQGYAPKELIGQGGKAPEIDIIDKRSENAPT  0.128
4. HMGGLLSVIQKKAINNVKDRYSENAIKSMTKVQLHDLIKAETSRLLDPANAKETPEYQAFLEE  0.0926
5. HMNEMEWVAKLIDQLPERERMILQLREIEQYEFDQIASLMEIPEGTVRVYLSRIRKKIKKQFIEIQSH  0.0739
6. HMYKDVVVPNTVGDSEEKAYQTLSALGLVVNITYDEDASKSDRVVTSQNPTNKTIKEGESVNIVVNKQP  0.0711
7. HMDYEVPEELEEKFSENPQFKEAFDNLTPGRQHQYIYHISQAKRSQTRINRIEKYYEHILNGKGMQD  0.0659
8. HMKGTVLAPGIILNADDQRFTYLQEDVASVAKDGAAIVLKQGDEVDFIADGQTAKQIYLTKT  0.0649
9. HMDSLQDFAYEEIKKRIQNGEYAPGTKLNTQEISDSLGISRSPVLAAINRLIALGLVEATPRKGTTVA  0.0527
10. HMDRMINYSPIVAKVPQDDYTTKVYNIPIYSELTVVDKISEPEPLIAPIYRFKYITPEDEEIEFDIPV  0.0278
11. HMPTPRVPMSKQRQILQLLQDGHLSTREIAAALHISKTSVGDIAKAARLAGLDWEAASKLSDEELSARIYK  -0.00175
12. HMQQGVEQLPVTEVGGRLMHYYEVQPKETLYSLSHKLGVGQEYIEQHNPSVRGGLRAFMTLYFPAA  -0.0212
13. HMGKAYMVPDVKNKSVNQAQLLLADKHMNGVVVDSSYVKELPAGIVLDQTPVGGMKVKEGRTVYLTINSD  -0.0262
14. HMEATEFYLEDLTGQMYNDVVNDEKYAGKIVFEKEEVQSDGEEAIGQILNQRPAGNMNVRIGTTVTLVVNA  -0.0405
15. HMKKAENEKLNIPYDVTEFLASSIKDDIRMMEGAMVKLLALSSLTKQDITQSLAKRVIQDVLGSSA  -0.097
16. HMERRDEINSVVSRYVSAITEGKYDLAEVDETGKLRVQTEGREVLPEALSRGTLEQFYFAFRMAVGSI  -0.118
17. HMSMLSQERQSLILDIIKEQGSVTVTRLTEILQSSESTVRRDLSYLASKGKINKVHGGATALG  -0.206
18. HMARYSMLEEQLLQLINKHGTMSTPKLVEATGAPRSTVTYQLRKLLESGTIERTQPARSPKQSYRIKS  -0.238
19. HMIKIEDYTNKDYNKVEASLEVKGLVVNIEYKAVDDKAKYKGKEDLIIDQSVKKDATLVKGDTIILYLPK  -0.268
20. HMTDFDPDGREKLIKVQKALHFNNHQLADALRVGQATFSSYIYGRVAAGVPVRVVKAAEDLLKNSKATV  -0.303
21. HMILQTLSERVTETLRDWILHGHFKPGDKIEEVPIAERMGVSRTPVRAAFATLTNEGLIDHQPNRGYQVRV  -0.325
22. HMSSPTAKATGSSVNIRKSASTGAAVLKRVEKGTVLEAVSISDGWVKVKYSGVTGYVSADYVKVSGL  -0.354
23. HMPSSIEGIEKYLGSGMIRGIGAVYAKRLVKQFGKDVFDIIEETPERLREVEGIGPIRAARIISGWADQ  -0.41
24. HMDVLSPEEWIEFRTAYNNNRYISQYGSKGATIEDDYATRLAMIGGKESYYFLNDPRWTEPGYGNLK  -0.437
25. HMITERVPVPDLTGMPLMEAIKTLNSSKLQYQVVGSVIEGDENRIIDQTPKPDIMVSEKSIVLLYLETYRG  -0.509
26. HMGPEAFPVPYVVDIELDRAIYVIEQSGFIVGQKLEANDNNVPRGFVISQNPPAGTKLGPESIVDLVVSS  -0.519
27. HMSGAKLLAPVTGTLLRYTVAEGTKVSEGQTVIMLESMKMELEINAHKAGVIHFTAAAGAQVAEGDSLAEI  -0.52
28. HMEQEVLDLLFDAIRSLPEKYRRLFDMSFEQGLKNAEIAALLHVSESAVKKQKASMIQQLRDDLLRKTGKD  -0.693
29. HMNSFKIYPNPSSREVVRFNQAQDVKVYDTLGKLILSAKNTSAIDTKSFNTGIYFIKTANGLTKKLIV  -0.695
30. HMGVGITAPLAGNIFKIVVQPGDVVASGDVVLVLEAMKMETEIRAASGGTVSQVLVREGDAVDAGHTLITL  -0.764
31. HMVYNGYYAKSFNGYVVILNGDEKTVYEYTQIPIHLLPEDIRSSVMSGYYLENETDLYNFLENYS  -0.822
32. HMAVSSYSVKRYIRNMIQAEDPSAPFSDEALRLALLAHGIAVSRRVVTKYRMAMDIPSSSQRRKR  -0.866
33. HMGIAERKEKQKLEIRNAILEASRKLIVEEGFEKVTMRKIADLIEYSPTTVYLYFKDKNEILFHLHQ  -1.37
34. HMTMKQVFIETDANVNQKIMLNEKEAHHLFDVLRTSDKETIRVVTNTSQVFLARVQQKPYIYLFDKMTVE  -1.41
35. HMAPVLTRREHEVLHLLTDGLDNRTIARNLFISEATVKFHLHNIMGKFGVHRRAALVSTALRG  -2.21
36. HMTPVEVNARGVHVDFSKGGILLEDVVRHLILEALRASEWKRGPAAQLLGISKETLRYRMEKYRLYPP  -2.26
37. HMHMHTADDFKQLAKHTSNGRLRTRYLALYHFKKGETRTQIAAYLGVARGSVNTWVSNYLAYGLEGLQS  -2.56
38. HMILKQTHIVQELTGPIRLQEYGVGIFQQISTKSALKKALKKNQITVDGVVGSTATFIKGGEIIIYHVTE  -2.75
